For assay [1], the target named is T1, human CXCR6 (human, UniProt O00574 1-342).
T1 construct: also called hu-CXCR6; wild type human CXCR6
Briefly: screening on cells overexpressing CXCR6, one single concentration, yes/no.

The next assay has as its target T2, cynomolgus monkey CXCR6 (cynomolgus monkey, UniProt Q9BDS6 1-343).
T2 construct: also called cyno-CXCR6; cyno monkey CXCR6
T2 sequence: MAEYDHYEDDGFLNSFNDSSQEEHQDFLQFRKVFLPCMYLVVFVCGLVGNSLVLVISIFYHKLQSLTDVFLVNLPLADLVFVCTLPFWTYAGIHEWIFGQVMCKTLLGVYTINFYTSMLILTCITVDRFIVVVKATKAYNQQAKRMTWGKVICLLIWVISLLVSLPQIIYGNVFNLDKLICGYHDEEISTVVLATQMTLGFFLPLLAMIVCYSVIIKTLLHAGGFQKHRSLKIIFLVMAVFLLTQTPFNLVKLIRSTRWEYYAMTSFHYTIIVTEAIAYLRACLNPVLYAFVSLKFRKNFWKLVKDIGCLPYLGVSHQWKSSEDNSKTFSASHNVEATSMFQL
The description is as above.

Assay [2] concerns the target T1, human CXCR6. As to the kind of experiment: description of the chimeric clones used in the ADCC example.

The values that follow come from patent US20240239907A1 (EDELWEISS IMMUNE, published 2024).

T1 sequence (O00574 whole entry): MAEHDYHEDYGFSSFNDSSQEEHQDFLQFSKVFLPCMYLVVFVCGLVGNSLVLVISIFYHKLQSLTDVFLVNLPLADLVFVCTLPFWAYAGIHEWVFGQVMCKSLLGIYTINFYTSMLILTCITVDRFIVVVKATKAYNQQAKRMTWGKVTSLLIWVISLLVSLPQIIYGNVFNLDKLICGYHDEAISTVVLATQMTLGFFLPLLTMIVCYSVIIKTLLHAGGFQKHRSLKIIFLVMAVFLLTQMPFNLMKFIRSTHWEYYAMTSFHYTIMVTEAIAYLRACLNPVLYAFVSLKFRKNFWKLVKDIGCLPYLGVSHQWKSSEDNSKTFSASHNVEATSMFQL

B1: Beacon2-F1 (antibody, V domains shown)
VH: EVQLVESGGDLVKPGGSLKLSCAASGFTFSSYGMSWVRQTPDKRLEWVATISSGGSYTYYPDSVKGRFPISRDNAKNTLYQQMSSLNSEDTAMYYCARLYGNYPYFAMDYWGQGTSVTVSS
VL: DIVMTQSQKFMSTSVGDRVSITCKASQNVGTAVAWYQQKPGQSPKLLIFSASNRYTGVPDRFTGSGSGTDFTLTISNMQSEDLADYFCQQYSSYPYTFGGGTKLEIK
notes: Mouse-derived; tested at the screening stage
As to B1, the binding result with human CXCR6 [1] and with cynomolgus monkey CXCR6 was “binds” throughout.

B2: COXs-2D2 human/mouse chimeric antibody with human IgG1 Fc (antibody, V domains shown)
VH: EVQLVESGGGLVQPKGSLKLSCTASGFSFDTYAMNWVRQAPGKGLEWIARIRSKSKNYATYYADSVKDRFTISRDDSANILYLQMNNLKTEDTAIYYCLRQGSFDYWGQGTTLTVSS
VL: DVVLTQTPLSLPVSLGDQASISCRSGQRIVHTDGNTYLYWYLQKPGQSPKLLIYRVSNRFSGVPDRFSGSGSGTDFTLKISRVEAEDMGIYYCFQGTHFPYTFGGGTKLEIK
B2: the binding result with human CXCR6 [2] was “binds”.

B3: CNGs-1B7-E4 (antibody, V domains shown)
VH: EVQLVESGGGLVQPRGSLKLSCAASGFTFNTYAMNWVRQAPGNGLEWVARIRSKSYNYATYHAGSVKDRFTISRDDSQNMLYLQMNNLKTEDTAMYYCMRGQTYWGQGTLVTVSA
VL: DVVLTQTPLSLPVNIGDQASISCKSTKSLLNSDGFTYLDWHLQKPGQSPQLLIYLVSNRFSGVPDRFSGSGSGTDFTLKISRVEAEDLGVYYCFQSNYLPFTFGSGTKLEMK
notes: as for B1
Take B3: the binding result with human CXCR6 [1] is reported as “binds”.

B4: CNGs-3H2-B7 (antibody, V domains shown)
VH: EVQLVESGGGLVQPKGSLKLSCAASGVSFKTYAMTWVRQAPGKGLEWVARIRSKRYNYATYYADSVKDRFTISRDDSESMLYLQMNNLKTEDTAMYYCMRQGAYWGQGTLVTVSA
VL: DVVLTQTPLSLPVNIGDQASISCKSTKSLLNSDGFTYLDWYLQKPGQSPHLLIYLVSNRFSGVPDRFSGSGSGTDFTLKISRVEAEDLGVYYCFQSNYLPFTFGSGTKLEIK
notes: as for B1
Take B4: in the assay with human CXCR6 [1], the binding result is listed as “binds”.

B5: Beacon2-A3 (antibody, V domains shown)
VH: EVQIVESGGGLVQPKGSLKLSCAASGFSFNTYAMNWVRQAPGKGLEWVARIRTKRNNYVKFYADSVKDRFTISRDDSESMLYLQMNILKTEDTAMYYCVRQGAYWGQGTLVTVSA
VL: DVVLTQTPLSLPVNIGDQASISCKSTKSLLNSDGFTYLDWYLQKPGQSPQLLIYLVSNRFSGVPDRFSGSGSGTDFTLKISRVEAEDLGVYFCFQSNYLPYTFGGGTKLEIK
notes: as for B1
Take B5: in the assay with human CXCR6 [1], the binding result is given as “binds”.

B6: Beacon2-E5 (antibody, V domains shown)
VH: EVQLVESGGGLVQPKGSLKLSCAASGFSFNTYAMNWVRQAPGKGLEWVARIRTKRNNYVKFYADSVKGRFTISRDDSQSMLYLQMNNLKAEDTAIYYCVRQGAFWGQGTLVTVSA
VL: DVVLTQTPLSLPVNIGDQASISCKSTKSLLNSDGFTYLDWYLQKPGQSPQLLIYLVSNRFSGVPDRFSGSGSGTDFTLRISRVEAEDLGVYYCFQSNYLPYTFGGGTKLEIK
notes: as for B1
As to B6, the binding result with human CXCR6 [1] is on record as “binds”.

B7: CNE-6E10 human/mouse chimeric antibody with human IgG1 Fc (antibody, V domains shown)
VH: EVQLVESGGGLVQPKGSLKLSCAASGFSFNTYAMNWVRQAPGKGLEWVARIRSKTNSYETYYADSVKDRFTISRDDSESMLYLQMNNLKTEDTAVYYCLSHGAFAYWGQGTLVTVSA
VL: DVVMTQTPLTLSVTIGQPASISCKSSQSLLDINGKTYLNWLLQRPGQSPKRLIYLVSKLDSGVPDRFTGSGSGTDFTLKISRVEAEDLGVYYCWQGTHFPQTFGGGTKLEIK
As for B7, in the assay with human CXCR6 [2], the binding result was “binds”.

B8: Genovac1-D12 (antibody, V domains shown)
VH: EVKLEESGGGLVQPGGSMKLSCVASGFTFSNYWMNWVRQSPEKGLKWVAQIRLKSDNYGTHYAESVKGRFTISRDDSKGSVYLQMNNLRAEDTGIYYCTSNAWFAYWGQGTLVTVSA
VL: DIVMTQAAPSVPVTPGESVSISCRSSKSLLHSNGNTYLFWFLQRPGQSPQRLISYMSNLASGVPDRFSGRGSGTDFTLRISRVEAEDVGVYYCLLSLEYPYTFGSGTRLEIT
notes: as for B1
On to B8, for which the binding result with human CXCR6 [1] is on record as “binds”.

B9: Beacon1-A4 (antibody, V domains shown)
VH: EVQLQQSGPVLVKPGASVKMSCKTSGYTFTDYYMNWVKQSHGKSLEWIGVIKPYSGRTSYDQKFKDKATLTVDKSSSTAYMELNSLTSEDSAVYYCAREGVSITTVGSSLYYYPMDYWGQGTSVTVSS
VL: DIVLTQSPATLSVTPGASVSLSCRASQSISNNLHWYQQKSHESLRLLIKYASQSVSGIPSRFSGSGSGTDFTLTINSVETEDFGMYFCQQSNSWPRTFGGGTKLEIK
notes: as for B1
As for B9, in the assay with human CXCR6 [1], the binding result was “binds”.

B10: Genovac2-H2 (antibody, V domains shown)
VH: EVKLEESGGGLVRPGGSMKLSCVASGFTFSDYWMNWVRQSPEKGLEWLAQIRLNSGNYAARYAESVKGRFTISRDDSKNSVYLQMINLRAEDTGIYFCTSNAWLANWGQGTLVTVSA
VL: DIQMTQSPASLSVSVGETVTITCRASENIYNNLAWYQQKQGKSPQLLVYAATNLADGVPSRFSGSGSGTQYSLKINSLQSEDFGSYYCQHFWGTPWTFGGGTKLEIK
notes: as for B1
Turning to B10, the binding result with human CXCR6 [1] was “binds”.

B11: CNE-6E5-C1 (antibody, V domains shown)
VH: QVTLKESGPGILQSSQILSLTCSFSGFSLITSGMGVSWIRKTSGKGLEWLAHIYWDDEKRYNPSLKSRLTISKGTSRNQVFLRITSVDTTDTATYFCVRREDFGDGFDYWGQGTTLTVSP
VL: DVLMTQAPLSLPVSLGDQASISCRSSQTIVHSNGVTYLEWYLQKPGQSPKLLIYKVSNRFSGVPDRFSGSGSGTYFTLKISRVEAEDLGVYYCFQGSHVPPTFGGGTKLEIK
notes: as for B1
With B11, the binding result with human CXCR6 [1] and in the assay with cynomolgus monkey CXCR6 was “binds” throughout.

B12: CNE-7B1 (antibody, V domains shown)
VH: QVQLQQSGPELVKPGTSVRISCKTSGYTFTSSYVHWVKRRPGQGLEWIGWIYPGNDYTKYNEKFKGKATLTADKSSSTAYMRLSSLASEDSAVYFCTRSYYGFDYWGQGTTLTVSS
VL: DVLMTQTPLSLPVSLGDQASISCRSGQSIVRSRGNTYLEWYLQKPGQSPKLLIYKVSNRFSGVPDRFSGSGSGTDFTLKISRVEAEDLGVYYCFQGSHVPYTFGGGTKLEIK
notes: as for B1
As for B12, the binding result in the assay with human CXCR6 [1] is on record as “binds”.

B13: CNGs-1E1-G5 (antibody, V domains shown)
VH: QVQLQQSGPELVKPGASVRISCKASGYTFTTSYIHWVKQRPGQGLEWIGWISPGNVNTRSNEKFKGKATLTADKSSNTAYMQLSSLTSEDSAVYFCAKSYFGFDFWGQGTTLTVSS
VL: DVLMTQTPLSLPVSLGDQASISCRSSQSIVHSNGNTYLEWYVQKPGQSPKLLIYKVSNRSSGVPDRFSGSGSGTDFTLKISRVEAEDLGVYYCFQGSHVPYTFGGGTKLEIK
notes: as for B1
On to B13, for which the binding result with human CXCR6 [1] is “binds”.

B14: CNGs-3B2 (antibody, V domains shown)
VH: DVQLVESGGGLVQPGGSRTLSCAASGFTFSSFGMHWVRQAPEKGLEWVAYISSGSTTIYYADTVKGRFTISRDNPKNTLFLQVTSLRSEDTAVYYCTRSHWPYWYFDVWGAGTTVTVSS
VL: DVQITQSPSYLAASPGETITINCRASKSISKYLAWYQEKPGKTNKLLIYSGSTLQSGNPSRFSGSGSGTDFTLTISRLEPEDCAMYYCQQHNEFPWTFGGGTKLEIK
notes: as for B1
For B14, the binding result in the assay with human CXCR6 [1] and in the assay with cynomolgus monkey CXCR6 was “binds” throughout.

B15: Beacon2-A7 (antibody, V domains shown)
VH: EMKLEESGGGLVQPGGSMKLSCVASGFTFSNYWMSWVRQSPEKGLQWVGQIRLKSDNYATHYAESVKGKFTISRDDSKSSVYLQMNNLRAEDTGIYYCAPYSNWGYWGQGTTLTVSS
VL: DIVMTQAAPSIPVTPGGSVSISCRSTKSLLHTNGNTYLYWFLQRPGQSPQVLIYRMSNLASGVPDRFSGSGSGTAFTLRISRVEAEDVGVYYCMQYLEYPYTFGSGTKLEIK
notes: as for B1
In the case of B15, the binding result with human CXCR6 [1] was “binds”.
